US20230151105A1

What was measured:
[1] = target: recombinant OX40-Fc protein (R & D, Cat 3388-OX) (human) (UniProt P43489); assay: blocking ELISA: OX40-Fc coated, antibody titrated, competitor OX40L at 50 ng/ml
[2] = target: human OX40 expressed on the cell surface (human) (UniProt P43489); assay: cell-based or functional assay
human OX40 expressed on the cell surface (human), sequence (P43489 29-277): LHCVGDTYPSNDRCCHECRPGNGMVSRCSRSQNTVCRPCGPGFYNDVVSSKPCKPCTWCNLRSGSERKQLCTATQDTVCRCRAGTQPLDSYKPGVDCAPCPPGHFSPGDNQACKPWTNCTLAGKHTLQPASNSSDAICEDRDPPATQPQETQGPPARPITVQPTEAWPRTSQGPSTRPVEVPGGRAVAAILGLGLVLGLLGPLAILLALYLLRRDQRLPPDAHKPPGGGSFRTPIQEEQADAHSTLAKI

recombinant OX40-Fc protein (R & D, Cat 3388-OX) (human), sequence (P43489 29-214): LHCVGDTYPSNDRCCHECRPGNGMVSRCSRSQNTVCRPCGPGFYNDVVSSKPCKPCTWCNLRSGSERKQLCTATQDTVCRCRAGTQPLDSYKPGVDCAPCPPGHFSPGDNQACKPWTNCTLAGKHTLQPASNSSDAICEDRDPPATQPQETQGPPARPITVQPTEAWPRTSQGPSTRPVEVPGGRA

IC50 [1]: 0.3 nM
maximum inhibition rate [1]: 50%
blocking of OX40L-mediated T cell activation, IFNγ secretion, IC50 [2]: 1.1 nM
B1: GBR830 (antibody, from another filing, V domains shown)
VH: QVTLKESGPALVKPTQTLTLTCSFSGFSLSTSGMGVGWIRQPPGKALEWIAHIWWDDDKYYNTALKTRLTISKDTSKNQVVLTMTNMDPVDTATYYCARIDWDGFAYWGQGTLVTVSS
VL: EIVLTQSPATLSLSPGERATLSCRASSSVSYMHWYQQKPGQAPRPWIYATSNRATGIPARFSGSGSGTDYTLTISSLEPEDFAVYYCQQWSSNPWTFGQGTKVEIKR
